Each block holds one binder with its values, some of them ahead of it. Positions of bridges follow the written chain, without caps; N, C: chain ends. Non-standard residues stand in square brackets, D forms with d. Primed or numbered codes have the meaning given here. Chains are numbered I, II in the order given. No end group written: not given here. *: point of attachment. Palmitoyl = CCCCCCCCCCCCCCCC(=O)*; PEG2′ = PEG2 spacer unit
Assays:
[1] = biological target: T1, human serum albumin (HSA) (human, UniProt P02768 25-609); assay: fluorescence polarization
[2] = biological target: T1, human serum albumin (HSA); assay: fluorescence polarization, dilution series of human serum
Description: (b) Kd values of conjugates for HSA assessed by fluorescence polarization. A dilution serious of human serum was used. […] All data represent the mean of three measurements ±SD.
Thus, the dissociation constants (Kd) of the molecules for HSA were tested with a fluorescence polarization (FP) assay using the fluorescein moiety in the albumin tag. The fluorescence anisotropy of the molecules in a dilution series of human serum was measured and Kd values were calculated.

[3] = biological target: T2, human Kallikrein-related peptidase 5 (hKLK5) (human, UniProt Q9Y337 67-293, limits assumed); assay: substrate-based activity assay in the presence of 25 µM HSA
T2 construct: Active protease used in substrate-based activity assays and immobilized for phage selection; also called stratum corneum tryptic enzyme (SCTE)
Description: (§1) (a) Kᵢ values of N- and C-terminal tag conjugates in comparison to unconjugated inhibitors measured by inhibition assays in the presence of HSA. […] All data represent the mean of three measurements ±SD.
(§2) Even though the actual concentration of albumin in human blood is at around 600 μM and thus much higher, a higher albumin concentration in the assay was not possible, as it interfered with the protease activity.

[4] = biological target: T3, mouse serum albumin (MSA) (mouse, UniProt P07724 25-608); assay: fluorescence polarization, dilution series of mouse albumin in PBS
T3 construct: also called mouse albumin

FXIIa (Factor XIIa) = biological target: T4, FXIIa (Factor XIIa) (human, UniProt P00748 373-615, limits assumed); assay: substrate-based activity assay, off-target selectivity
T4 sequence (looked up): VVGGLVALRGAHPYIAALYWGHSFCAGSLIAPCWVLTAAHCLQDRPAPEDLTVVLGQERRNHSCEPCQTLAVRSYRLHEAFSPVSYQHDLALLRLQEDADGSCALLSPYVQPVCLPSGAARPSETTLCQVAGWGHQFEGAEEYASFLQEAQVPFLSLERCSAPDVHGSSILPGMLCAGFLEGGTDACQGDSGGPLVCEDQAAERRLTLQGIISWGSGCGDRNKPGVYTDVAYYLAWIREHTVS

[5] = biological target: T5, human Kallikrein-related peptidase 7 (hKLK7) (human, UniProt P49862 30-253); assay: substrate-based activity assay
T5 construct: Active protease used in substrate-based activity assays and immobilized for phage selection; also called stratum corneum chymotryptic enzyme (SCCE)

[6] = biological target: T5, human Kallikrein-related peptidase 7 …; assay: substrate-based activity assay in the presence of 25 µM HSA
Description: as §1, §2

T2 sequence (Q9Y337 67-293 limits assumed): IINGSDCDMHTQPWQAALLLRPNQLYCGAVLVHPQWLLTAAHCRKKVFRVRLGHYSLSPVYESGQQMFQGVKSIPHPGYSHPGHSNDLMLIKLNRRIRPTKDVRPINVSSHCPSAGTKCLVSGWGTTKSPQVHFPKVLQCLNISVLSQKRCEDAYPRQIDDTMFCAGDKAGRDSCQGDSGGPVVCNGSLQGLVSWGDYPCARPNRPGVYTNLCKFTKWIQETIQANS
T5 sequence (P49862 30-253 limits assumed): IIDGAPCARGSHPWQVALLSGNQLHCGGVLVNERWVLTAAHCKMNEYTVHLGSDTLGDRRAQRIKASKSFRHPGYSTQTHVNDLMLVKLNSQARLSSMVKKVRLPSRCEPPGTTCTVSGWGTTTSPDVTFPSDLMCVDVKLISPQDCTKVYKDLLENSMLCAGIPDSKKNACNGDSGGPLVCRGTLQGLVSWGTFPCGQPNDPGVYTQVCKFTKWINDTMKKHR
T3 sequence (P07724 25-608 limits assumed): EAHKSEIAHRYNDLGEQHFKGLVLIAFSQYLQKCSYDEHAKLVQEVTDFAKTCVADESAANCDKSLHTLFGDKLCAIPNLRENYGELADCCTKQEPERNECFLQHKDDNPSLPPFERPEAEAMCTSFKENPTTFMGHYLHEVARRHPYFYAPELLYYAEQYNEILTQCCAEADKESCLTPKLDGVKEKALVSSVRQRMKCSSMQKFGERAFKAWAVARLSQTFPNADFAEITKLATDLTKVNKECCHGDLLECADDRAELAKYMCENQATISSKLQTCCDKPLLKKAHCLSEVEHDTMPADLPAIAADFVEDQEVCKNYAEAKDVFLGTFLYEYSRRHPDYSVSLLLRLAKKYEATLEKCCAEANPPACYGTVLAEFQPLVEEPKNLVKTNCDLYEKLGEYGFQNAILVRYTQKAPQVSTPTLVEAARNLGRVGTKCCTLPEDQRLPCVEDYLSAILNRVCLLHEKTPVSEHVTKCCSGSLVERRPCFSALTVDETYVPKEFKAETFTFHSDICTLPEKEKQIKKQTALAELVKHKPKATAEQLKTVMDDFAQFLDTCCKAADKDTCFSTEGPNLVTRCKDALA

factor of improvement in HSA affinity over peptide 266 [1]: 4 fold
B1: albumin tag variant peptide 284 (peptide)
peptide: EYEKEYEK
modifications: 2-naphthalenecarboxylic acid cap at the N-terminus (based on peptide 266: on a gamma-coupled glutamic acid, through PEG2); Lys 4 side chain acylated with palmitic acid; additional C-terminal Lys carries 5(6)-carboxyfluorescein on its side chain
notes: also called tag variant 284

fold loss in affinity (Kd) for HSA on conjugation [2]: 2.9 fold
B3: KLK7 inhibitor 096-tag (C-terminal albumin tag conjugate of 096) (peptide)
peptide 1: PCLYLARCSGKG
peptide 2: EYEK(Palmitoyl)EYE
modifications: bridge I:2-I:8; not fully specified (some residues, N-terminus, bridges); also: chain 2 (albumin tag) attached via PEG2 to Lys11 side chain of chain 1 (branched)
notes: Branched molecule

factor recovered in HSA affinity compared to tag-F [1]: 2 fold
B4: albumin tag variant peptide 263 (peptide)
peptide: EYEKEYEK
modifications: pentanedioic acid appended to the N-terminus through a PEG2 unit; Lys 4 side chain acylated with palmitic acid; additional C-terminal Lys carries 5(6)-carboxyfluorescein on its side chain

fold loss in affinity (Kd) for HSA on conjugation [2]: 2.1 fold | fold improvement in the Ki value compared to the cyclic peptide alone [3]: 1.8 fold | binding result [4]: binds
B7: KLK5 inhibitor 035-tag (C-terminal albumin tag conjugate of 035) (peptide)
peptide 1: GCTRQYPCGKG
peptide 2: EYEK(Palmitoyl)EYE
modifications: bridge I:2-I:8; not fully specified (some residues, N-terminus, bridges); also: chain 2 (albumin tag) attached via PEG2 to Lys10 side chain of chain 1 (branched)

binding result [2]: binds | Ki [6]: 106 nM | fold loss in activity compared to the cyclic peptide alone [6]: 6.6 fold
B8: N-terminal albumin tag conjugate of KLK7 inhibitor 096 (peptide)
peptide 1: {5(6)‑carboxyfluorescein}-EYEK(Palmitoyl)EYE[PEG2′]
peptide 2: PCLYLARCS
modifications: linker II:2-II:8 via 1,3‑dibromoacetone; also: tag C-terminus joined through PEG2 to inhibitor N-terminus (one linear molecule)
notes: also called N-terminal conjugate (KLK7)

further factor recovered in HSA affinity by the first aromatic ring [1]: 2 fold
B9: albumin tag variant peptide 266 (peptide)
peptide: EYEKEYEK
modifications: benzoic acid coupled to the amine of a gamma-coupled glutamic acid at the N-terminus (through PEG2); Lys 4 side chain acylated with palmitic acid; additional C-terminal Lys carries 5(6)-carboxyfluorescein on its side chain

The remaining lines, values behind:

B2: N-terminal albumin tag conjugate of KLK5 inhibitor 035 (peptide)
peptide 1: {5(6)‑carboxyfluorescein}-EYEK(Palmitoyl)EYE
peptide 2: GCTRQYPC
modifications: bridge II:2-II:8; not fully specified (C-terminus, bridges); also: chain 1 C-terminus joined via PEG2 to N-terminus of chain 2 (one linear molecule)
notes: also called N-terminal conjugate (KLK5)
binding result [2]: binds | Ki [3]: 23 nM | fold loss in activity compared to the cyclic peptide alone [3]: 10 fold

B5: albumin tag variant peptide 282 (peptide)
peptide: EYEKEYEK
modifications: biphenyl-3-carboxylic acid cap at the N-terminus (based on peptide 266: on a gamma-coupled glutamic acid, through PEG2); Lys 4 side chain acylated with palmitic acid; additional C-terminal Lys carries 5(6)-carboxyfluorescein on its side chain
notes: also called tag variant 282
factor of improvement in HSA affinity over peptide 266 [1]: 4 fold

B6: SSSKSSS-tag (peptide)
peptide: SSSK(Palmitoyl)SSS
modifications: also: fluorescein label, position not given here
notes: Tag variant with all Tyr and Glu replaced by Ser; also called tag composed of Ser residues
binding result [4]: binds

Binder: GCTRQYPC (linker 2-8 via 1,3‑dibromoacetone, also called compound 035) [peptide 035 (lead KLK5 inhibitor)]
fold weaker than the Ki value for KLK5 (FXIIa (Factor XIIa)): ~4300 fold

Binder: PCLYLARCS (linker 2-8 via 1,3‑dibromoacetone) [peptide 096 (lead KLK7 inhibitor)]
fold better activity than peptide 114 [5]: 2 fold
